Laboratory results: patent publication US20110189164A1, “Peptide Stabilizer Compounds and Screening Method” (Isogenica Ltd, priority 2005, published 2011)

Assays:
Human Thrombin = Human Thrombin (Homo sapiens, UniProt P00734); settings: fifth round selected peptides; 1 hour incubation +/- Human Thrombin 0.1 unit/ml; anti-FLAG ELISA OD450
Procedure: The values represent ((OD450 nm reading after incubation with thrombin)/(OD450 nm reading after incubation without thrombin)) expressed as a percentage. 100% indicates complete protection from thrombin cleavage.
Recovered DNA from the fifth round of selection was amplified using PCR, purified and digested with NotI and NcoI. The DNA was then ligated into a similarly digested M13 gpIII phagemid vector and transformed into E. coli XL-1 blue cells, and plated on 2% glucose, 2×TY, 100 μg/ml ampicillin plates. Individual colonies were grown for the production of phage particles as previously described (Odegrip et al Proc. Natl. Acad. Sci USA 101 2806-2810 (2004)). NUNC Maxisorp plates were coated with 100 ng/well of anti-FLAG M2 antibody in PBS overnight at 4° C. ELISA assays were performed with bound phage being incubated for 1 hour in 2% BSA in PBS, +/−Human Thrombin (0.1 unit/ml). The assay was developed with SureBlue TMB peroxidase substrate (Insight Biotechnology, Middlesex, UK) and read at 450 nm.

trypsin = molecular target: T1, trypsin (Bos taurus, UniProt P00760); assay: Incubation with trypsin-agarose, then ELISA against anti-FLAG antibody (trypsin resistance); type: in vitro ADME; settings: two hours at 25° C.
T1 construct: purchased SIGMA-Aldrich or Novagen
T1 sequence (P00760 24-246): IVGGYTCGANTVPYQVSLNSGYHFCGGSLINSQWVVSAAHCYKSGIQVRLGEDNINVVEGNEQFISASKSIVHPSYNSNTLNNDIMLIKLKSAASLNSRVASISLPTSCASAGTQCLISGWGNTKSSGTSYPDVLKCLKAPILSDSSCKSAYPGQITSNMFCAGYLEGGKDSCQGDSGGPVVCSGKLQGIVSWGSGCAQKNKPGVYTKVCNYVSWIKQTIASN
Procedure: A. Unselected library peptides incubated with trypsin. B. Unselected library peptides incubated without trypsin. C. Round five thrombin selection peptides incubated with trypsin. D. Round five thrombin selection peptides incubated without trypsin.
Trypsin cleaves after R or after K, thus there are two trypsin sites fixed in the FLAG epitope and thrombin substrate sequence. Even partial resistance to trypsin is surprising as no selection for trypsin resistance was performed and the FLAG epitope is susceptible to trypsin cleavage. Such resistance is observed in round five peptides selected for thrombin resistance, but not in the un-selected library peptides (FIG. 3).

| Sequence | Thrombin resistant (Human Thrombin) | Trypsin resistant (trypsin) |
| --- | --- | --- |
| HCVHEPQTKHES [SEQID 029] | resistant | resistant |
| ITPPDNSHTPDE [SEQID 027] | resistant | resistant |
| HGHSPSDNANTR [SEQID 028] | resistant | resistant |
| PSCPNKQDPTHD [SEQID 030] | resistant | resistant |
